Data from patent publication US20130012432A1 (Novo Nordisk, published 2013).
Positions of bridges follow the written chain, without caps; N, C: chain ends. Non-standard residues stand in square brackets, D forms with d. Groups on a side chain read outwards from the residue. Primed or numbered codes have the meaning given here. *: point of attachment. X2 = (2-(2-(16-(tetrazol-5-yl)hexadecanoylamino)ethoxy)ethoxy)acetyl, O=C(CCCCCCCCCCCCCCCc1nn[nH]n1)NCCOCCOCC(=O)*; X5 = NH(2-(2-(2-(17-carboxyheptadecanoylamino)ethoxy)ethoxy)ethyl), O=C(O)CCCCCCCCCCCCCCCCC(=O)NCCOCCOCCN*; biscarboxymethyl = Lys(biscarboxymethyl) = Nepsilon-bis(carboxymethyl)-L-lysine; bis(carboxymethyl) = Lys(biscarboxymethyl) = N6-bis(carboxymethyl)-L-lysine; Palmitoyl(16-(5-tetrazolyl)) = O=C(CCCCCCCCCCCCCCCc1nnn[nH]1)*; biscarboxymethyl(3) = Nepsilon-bis(carboxymethyl) on Lys; Lys(CH2CO2H)2 = N[C@@H](CCCCN(CC(=O)O)CC(=O)O)C(=O)O; C17 diacid = O=C(O)CCCCCCCCCCCCCCCC(=O)*; C16 diacid = O=C(O)CCCCCCCCCCCCCCC(=O)*; C14 diacid = O=C(O)CCCCCCCCCCCCC(=O)*; Hyp = O=C(O)[C@@H]1C[C@@H](O)CN1; NTA = O=C(O)CN(CC(=O)O)CC(=O)*; hCys = N[C@@H](CCS)C(=O)O; Orn = NCCC[C@H](N)C(=O)O; Dab = NCC[C@H](N)C(=O)O; Dap = NC[C@H](N)C(=O)O; AEEA = NCCOCCOCC(=O)O

B1: Ac-c[Lys-His-D-Phe-Arg-Trp-Asp]-Pro-Ser-Ser-Ser-Lys(biscarboxymethyl)-Ser-Ser-NH(2-{2-[2-(17-carboxyheptadecanoylamino)ethoxy]ethoxy}ethyl) (peptide)
peptide: Ac-KH[dF]RWDPSSS[Lys(CH2CO2H)2]SS-X5
modifications: lactam 1-6
SMILES: CC(=O)N[C@H]1CCCCNC(=O)C[C@@H](C(=O)N2CCC[C@H]2C(=O)N[C@@H](CO)C(=O)N[C@@H](CO)C(=O)N[C@@H](CO)C(=O)N[C@@H](CCCCN(CC(=O)O)CC(=O)O)C(=O)N[C@@H](CO)C(=O)N[C@@H](CO)C(=O)NCCOCCOCCNC(=O)CCCCCCCCCCCCCCCCC(=O)O)NC(=O)[C@H](Cc2c[nH]c3ccccc23)NC(=O)[C@H](CCCNC(=N)N)NC(=O)[C@@H](Cc2ccccc2)NC(=O)[C@H](Cc2c[nH]cn2)NC1=O
B2: Ac-c[Cys-Glu-His-D-Phe-Arg-Trp-Gly-Cys]-Pro-Pro-Lys-Glu-Lys(biscarboxymethyl)-Lys({2-[2-(15-carboxypentadecanoylamino)ethoxy]ethoxy}acetyl)-NH2 (peptide)
peptide: Ac-CEH[dF]RWGCPPKE[Lys(CH2CO2H)2]K([AEEA-C16 diacid])-NH2
modifications: disulfide 1-8
SMILES: CC(=O)N[C@H]1CSSC[C@@H](C(=O)N2CCC[C@H]2C(=O)N2CCC[C@H]2C(=O)N[C@@H](CCCCN)C(=O)N[C@@H](CCC(=O)O)C(=O)N[C@@H](CCCCN(CC(=O)O)CC(=O)O)C(=O)N[C@@H](CCCCNC(=O)COCCOCCNC(=O)CCCCCCCCCCCCCCC(=O)O)C(N)=O)NC(=O)CNC(=O)[C@H](Cc2c[nH]c3ccccc23)NC(=O)[C@H](CCCNC(=N)N)NC(=O)[C@@H](Cc2ccccc2)NC(=O)[C@H](Cc2c[nH]cn2)NC(=O)[C@H](CCC(=O)O)NC1=O
B3: Ac-c[homoCys-His-D-Phe-Arg-Trp-Cys]-Pro-Pro-Lys-Asp-Dap(BCMA)-Lys({2-[2-(13-carboxytridecanoylamino)ethoxy]ethoxy}acetyl)-NH2 (peptide)
peptide: Ac-[hCys]H[dF]RWCPPKD[Dap](NTA)K([AEEA-C14 diacid])-NH2
modifications: disulfide 1-6
SMILES: CC(=O)N[C@H]1CCSSC[C@@H](C(=O)N2CCC[C@H]2C(=O)N2CCC[C@H]2C(=O)N[C@@H](CCCCN)C(=O)N[C@@H](CC(=O)O)C(=O)N[C@@H](CNC(=O)CN(CC(=O)O)CC(=O)O)C(=O)N[C@@H](CCCCNC(=O)COCCOCCNC(=O)CCCCCCCCCCCCC(=O)O)C(N)=O)NC(=O)[C@H](Cc2c[nH]c3ccccc23)NC(=O)[C@H](CCCNC(=N)N)NC(=O)[C@@H](Cc2ccccc2)NC(=O)[C@H](Cc2c[nH]cn2)NC1=O
B4: Ac-c[Lys-His-D-Phe-Arg-Trp-Asp]-Pro-Pro-His-Glu-Lys(biscarboxymethyl)-Lys({2-[2-(16-carboxyhexadecanoylamino)ethoxy]ethoxy}acetyl)-NH2 (peptide)
peptide: Ac-KH[dF]RWDPPHE[Lys(CH2CO2H)2]K([AEEA-C17 diacid])-NH2
modifications: lactam 1-6
SMILES: CC(=O)N[C@H]1CCCCNC(=O)C[C@@H](C(=O)N2CCC[C@H]2C(=O)N2CCC[C@H]2C(=O)N[C@@H](Cc2c[nH]cn2)C(=O)N[C@@H](CCC(=O)O)C(=O)N[C@@H](CCCCN(CC(=O)O)CC(=O)O)C(=O)N[C@@H](CCCCNC(=O)COCCOCCNC(=O)CCCCCCCCCCCCCCCC(=O)O)C(N)=O)NC(=O)[C@H](Cc2c[nH]c3ccccc23)NC(=O)[C@H](CCCNC(=N)N)NC(=O)[C@@H](Cc2ccccc2)NC(=O)[C@H](Cc2c[nH]cn2)NC1=O
B5: Ac-c[homoCys-Gln-D-Phe-Arg-Trp-Cys]-Pro-Pro-Lys-Asp-Dap(BCMA)-Lys[(2-{2-[16-(tetrazol-5-yl)hexadecanoylamino]ethoxy}ethoxy)acetyl]-NH2 (peptide)
peptide: Ac-[hCys]Q[dF]RWCPPKD[Dap](NTA)K([AEEA-Palmitoyl(16-(5-tetrazolyl))])-NH2
modifications: disulfide 1-6
SMILES: CC(=O)N[C@H]1CCSSC[C@@H](C(=O)N2CCC[C@H]2C(=O)N2CCC[C@H]2C(=O)N[C@@H](CCCCN)C(=O)N[C@@H](CC(=O)O)C(=O)N[C@@H](CNC(=O)CN(CC(=O)O)CC(=O)O)C(=O)N[C@@H](CCCCNC(=O)COCCOCCNC(=O)CCCCCCCCCCCCCCCc2nnn[nH]2)C(N)=O)NC(=O)[C@H](Cc2c[nH]c3ccccc23)NC(=O)[C@H](CCCNC(=N)N)NC(=O)[C@@H](Cc2ccccc2)NC(=O)[C@H](CCC(N)=O)NC1=O
B6: Ac-c[homoCys-Hyp-D-Phe-Arg-Trp-Cys]-Pro-Pro-Lys-Asp-Dap(BCMA)-Lys[(2-{2-[16-(tetrazol-5-yl)hexadecanoylamino]ethoxy}ethoxy)acetyl]-NH2 (peptide)
peptide: Ac-[hCys][Hyp][dF]RWCPPKD[Dap](NTA)K([AEEA-Palmitoyl(16-(5-tetrazolyl))])-NH2
modifications: disulfide 1-6
SMILES: CC(=O)N[C@H]1CCSSC[C@@H](C(=O)N2CCC[C@H]2C(=O)N2CCC[C@H]2C(=O)N[C@@H](CCCCN)C(=O)N[C@@H](CC(=O)O)C(=O)N[C@@H](CNC(=O)CN(CC(=O)O)CC(=O)O)C(=O)N[C@@H](CCCCNC(=O)COCCOCCNC(=O)CCCCCCCCCCCCCCCc2nnn[nH]2)C(N)=O)NC(=O)[C@H](Cc2c[nH]c3ccccc23)NC(=O)[C@H](CCCNC(=N)N)NC(=O)[C@@H](Cc2ccccc2)NC(=O)[C@@H]2C[C@@H](O)CN2C1=O
B7: Ac-c[Lys-His-D-Phe-Arg-Trp-Asp]-Pro-Pro-His-Glu-Glu-Ser-Ser-Glu-Lys({2-[2-(16-carboxyhexadecanoylamino)ethoxy]ethoxy}acetyl)-NH2 (peptide)
peptide: Ac-KH[dF]RWDPPHEESSEK([AEEA-C17 diacid])-NH2
modifications: lactam 1-6
SMILES: CC(=O)N[C@H]1CCCCNC(=O)C[C@@H](C(=O)N2CCC[C@H]2C(=O)N2CCC[C@H]2C(=O)N[C@@H](Cc2c[nH]cn2)C(=O)N[C@@H](CCC(=O)O)C(=O)N[C@@H](CCC(=O)O)C(=O)N[C@@H](CO)C(=O)N[C@@H](CO)C(=O)N[C@@H](CCC(=O)O)C(=O)N[C@@H](CCCCNC(=O)COCCOCCNC(=O)CCCCCCCCCCCCCCCC(=O)O)C(N)=O)NC(=O)[C@H](Cc2c[nH]c3ccccc23)NC(=O)[C@H](CCCNC(=N)N)NC(=O)[C@@H](Cc2ccccc2)NC(=O)[C@H](Cc2c[nH]cn2)NC1=O
B8: Ac-c[homoCys-His-D-Phe-Arg-Trp-Cys]-Pro-Pro-Lys-Asp-Dap(BCMA)-Lys[(2-{2-[16-(tetrazol-5-yl)hexadecanoylamino]ethoxy}ethoxy)acetyl]-OH (peptide)
peptide: Ac-[hCys]H[dF]RWCPPKD[Dap](NTA)K([AEEA-Palmitoyl(16-(5-tetrazolyl))])-OH
modifications: disulfide 1-6
SMILES: CC(=O)N[C@H]1CCSSC[C@@H](C(=O)N2CCC[C@H]2C(=O)N2CCC[C@H]2C(=O)N[C@@H](CCCCN)C(=O)N[C@@H](CC(=O)O)C(=O)N[C@@H](CNC(=O)CN(CC(=O)O)CC(=O)O)C(=O)N[C@@H](CCCCNC(=O)COCCOCCNC(=O)CCCCCCCCCCCCCCCc2nnn[nH]2)C(=O)O)NC(=O)[C@H](Cc2c[nH]c3ccccc23)NC(=O)[C@H](CCCNC(=N)N)NC(=O)[C@@H](Cc2ccccc2)NC(=O)[C@H](Cc2c[nH]cn2)NC1=O
B9: Ac-c[Cys-Glu-His-D-Phe-Arg-Trp-Cys]-Pro-Pro-Lys-Glu-Lys(biscarboxymethyl)-Lys[(2-{2-[16-(tetrazol-5-yl)hexadecanoylamino]ethoxy}ethoxy)acetyl]-NH2 (peptide)
peptide: Ac-CEH[dF]RWCPPKE[Lys(CH2CO2H)2]K([AEEA-Palmitoyl(16-(5-tetrazolyl))])-NH2
modifications: disulfide 1-7
SMILES: CC(=O)N[C@H]1CSSC[C@@H](C(=O)N2CCC[C@H]2C(=O)N2CCC[C@H]2C(=O)N[C@@H](CCCCN)C(=O)N[C@@H](CCC(=O)O)C(=O)N[C@@H](CCCCN(CC(=O)O)CC(=O)O)C(=O)N[C@@H](CCCCNC(=O)COCCOCCNC(=O)CCCCCCCCCCCCCCCc2nnn[nH]2)C(N)=O)NC(=O)[C@H](Cc2c[nH]c3ccccc23)NC(=O)[C@H](CCCNC(=N)N)NC(=O)[C@@H](Cc2ccccc2)NC(=O)[C@H](Cc2c[nH]cn2)NC(=O)[C@H](CCC(=O)O)NC1=O
B10: Ac-c[homoCys-His-D-Phe-Arg-Trp-Cys]-Pro-Pro-Lys-Asp-Lys(BCMA)-Lys[(2-{2-[16-(tetrazol-5-yl)hexadecanoylamino]ethoxy}ethoxy)acetyl]-NH2 (peptide)
peptide: Ac-[hCys]H[dF]RWCPPKDK(NTA)K([AEEA-Palmitoyl(16-(5-tetrazolyl))])-NH2
modifications: disulfide 1-6
SMILES: CC(=O)N[C@H]1CCSSC[C@@H](C(=O)N2CCC[C@H]2C(=O)N2CCC[C@H]2C(=O)N[C@@H](CCCCN)C(=O)N[C@@H](CC(=O)O)C(=O)N[C@@H](CCCCNC(=O)CN(CC(=O)O)CC(=O)O)C(=O)N[C@@H](CCCCNC(=O)COCCOCCNC(=O)CCCCCCCCCCCCCCCc2nnn[nH]2)C(N)=O)NC(=O)[C@H](Cc2c[nH]c3ccccc23)NC(=O)[C@H](CCCNC(=N)N)NC(=O)[C@@H](Cc2ccccc2)NC(=O)[C@H](Cc2c[nH]cn2)NC1=O

molecular target: T1, human MC4 receptor (human, UniProt P32245 1-332); experiment: 125I-NDP-α-MSH displacement, BHK-human MC4 membranes (Assay V);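 also: Filter-retained radioactivity read by gamma counting, with affinity obtained through non-linear regression fitting of the binding curves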
T1 construct: whole, on cells; Assayed as membranes of BHK cells stably expressing the receptor; also called melanocortin receptor subtype 4; melanocortin receptor 4
T1 sequence (P32245 whole entry): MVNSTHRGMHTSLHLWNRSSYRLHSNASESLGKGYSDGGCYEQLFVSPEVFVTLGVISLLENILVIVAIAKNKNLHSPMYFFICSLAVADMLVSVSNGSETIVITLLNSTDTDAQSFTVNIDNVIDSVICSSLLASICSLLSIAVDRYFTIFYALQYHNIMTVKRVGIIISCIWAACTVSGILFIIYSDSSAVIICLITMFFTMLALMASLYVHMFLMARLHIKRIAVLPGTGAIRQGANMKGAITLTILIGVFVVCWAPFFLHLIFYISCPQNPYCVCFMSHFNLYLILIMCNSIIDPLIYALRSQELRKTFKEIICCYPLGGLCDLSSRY
Method: The membranes were prepared from frozen or fresh cells that were homogenized in 20 mM HEPES pH 7.1, 5 mM MgCl₂ and 1 mg/ml bacitracin and centrifuged at 15000 rpm at 4° C., 10 min in a Sorvall RC 5B plus, SS-34 rotor. The supernatant was discarded, and the pellets were re-suspended in buffer, homogenized and centrifuged two more times. The final pellets were resuspended in the buffer mentioned above, and the protein concentration was measured and adjusted with buffer to 14 to 17 mg/ml and the membrane preparation were kept at −80° C. until assay. The assay was run directly on a dilution of this cell membrane suspension, without any further preparation. The BHK cell membranes are kept at −80° C. until assay, and the assay is run directly on a dilution of this cell membrane suspension, without further preparation. The suspension is diluted to give maximally 10% specific binding, i.e. to approx. 50-100 fold dilution. […] Test compounds were dissolved in DMSO and diluted in binding buffer. Radiolabelled ligand and membranes were diluted in binding buffer. The incubation was stopped by dilution with 2×100 μl ice-cold 0.9% NaCl. The radioactivity retained on the filters was counted using a Cobra II auto gamma counter.
The data were analysed by non-linear regression analysis of binding curves, using the Windows™ program GraphPad™ Prism (GraphPad Software, USA).

Binder | Ki [nM]
B1 | 2.75
B2 | 55
B3 | 4.2
Ac-EH[dF]RW[Dap]PPRDK(biscarboxymethyl(3))K([AEEA-Palmitoyl(16-(5-tetrazolyl))])-NH2 (lactam 1-6) | 13
Ac-DH[dF]RW[Dap]PPRDK(biscarboxymethyl(3))K([AEEA-Palmitoyl(16-(5-tetrazolyl))])-NH2 (lactam 1-6) | 71.5
B4 | 17
Ac-[Dab]H[dF]RWDPPREK(biscarboxymethyl(3))K([AEEA-Palmitoyl(16-(5-tetrazolyl))])-NH2 (lactam 1-6) | 8.45
Ac-[Dab]H[dF]RWDPPHEK(biscarboxymethyl(3))K([AEEA-Palmitoyl(16-(5-tetrazolyl))])-NH2 (lactam 1-6) | 76
Ac-[Orn]H[dF]RWEPPHEK(bis(carboxymethyl))K([AEEA-C17 diacid])-NH2 (lactam 1-6) | 21.5
Ac-[Orn]H[dF]RWDPPHEK(biscarboxymethyl)K(X2)-NH2 (lactam 1-6) | 1.43
Ac-[Dab]H[dF]RWEPPRDK(biscarboxymethyl(3))K([AEEA-Palmitoyl(16-(5-tetrazolyl))])-NH2 (lactam 1-6) | 107
B5 | 1.06
B6 | 0.62
B7 | 30
B8 | 6.4
Ac-[Orn]H[dF]RWEPSSSK(bis(carboxymethyl))SSK([AEEA-C17 diacid])-NH2 (lactam 1-6) | 6.35
B9 | 15
Ac-[hCys]H[dF]RWCPPKEK(bis(carboxymethyl))K([AEEA-C16 diacid])-NH2 (disulfide 1-6) | 17
B10 | 0.4
Ac-[hCys]H[dF]RWCPPSEK(bis(carboxymethyl))K([AEEA-C16 diacid])-NH2 (disulfide 1-6) | 70
